The source of these data is patent publication US20210347908A1 (ELPISCIENCE SUZHOU BIOPHARMA, published 2021).

Experiment [1] concerns the target T1, Fc tagged human SIRPα v2 ECD recombinant protein (human).
T1 construct: range 1-369; cloned range M1-R369 includes the signal peptide; also called hSIRPα V2
The experiment is described as follows: ELISA. Background: ELISA stands for enzyme-linked immunosorbent assay.

The target of experiment [2] is T2, 6×His tagged human SIRPα v8 ECD recombinant protein (human).
T2 construct: extracellular domain; bought; also called hSIRPα V8
The experiment is described as follows: ELISA.

Experiment [3] has as its target T3, Fc tagged human SIRPβ ECD recombinant protein (human, UniProt O00241 30-371).
T3 construct: range 1-371; cloned range includes the signal peptide; also called hSIRPβ; not shown: human IgG Fc region (hFc) of the pCPC vector
Put plainly: ELISA.

In experiment [4] the target is T4, Fc tagged human SIRPγ ECD recombinant protein (human, UniProt Q9P1W8 29-360).
T4 construct: range 1-360; cloned range includes the signal peptide; also called hSIRPγ; not shown: human IgG Fc region (hFc) of the pCPC vector
The experiment is described as follows: ELISA.

Experiment [5] concerns the target T5, Fc tagged human SIRPα v1 ECD recombinant protein (human, UniProt P78324 31-370).
T5 construct: range 1-370; cloned range M1-R370 includes the signal peptide; also called hSIRPα V1; not shown: human IgG Fc region (hFc) of the pCPC vector
Put plainly: ELISA.

In experiment [6] the target is T6, biotin labeled soluble human SIRPα v1 ECD recombinant protein (human, UniProt P78324 31-373, biotin labeled).
T6 construct: extracellular domain
The experiment is described as follows: competitive ELISA, hSIRPα/CD47 blocking.

Experiment [7] concerns the target T7, 6×His tagged human SIRPα v1 ECD recombinant protein (human, UniProt P78324 31-373).
T7 construct: extracellular domain; bought; also called hSIRPα V1 (SPR antigen)
Put plainly: SPR (Biacore). (In SPR one partner is held on a chip, and binding of the other changes the refractive index at the surface.)

Experiment [8] addresses T7, 6×His tagged human SIRPα v1 ECD …. The experiment is described as follows: SPR (Biacore), antibody captured. The method, then:
Anti-SIRPα chimeric antibodies were characterized for binding affinity against human SIRPα v1, human SIRPα v2 and C57BL/6 mouse SIRPα using Biacore (GE). Briefly the antibodies to be tested were captured to CM5 chip (GE) using Human Antibody Capture Kit (GE). The antigens of 6×His tagged human SIRPα v1, human SIRPα v2 and C57BL/6 mouse SIRPα ECD recombinant proteins were serially diluted for multiple doses and injected at 30 μl/min for 180 s. Buffer flow was maintained for dissociation of 400 s. 3 M MgCl₂ was used for chip regeneration. The association and dissociation curves were fit with 1:1 binding model, and the Ka/Kd/KD values for each antibody were calculated.

Experiment [9] has as its target T8, full length cyno SIRPα stably expressed on CHOK1 cells (cynomolgus monkey, UniProt A0A2K5VYQ9 31-507).
T8 construct: whole, on cells; also called CHOK1-cyno SIRPα-2A2 cells; CHOK1-cyno SIRPα
T8 sequence: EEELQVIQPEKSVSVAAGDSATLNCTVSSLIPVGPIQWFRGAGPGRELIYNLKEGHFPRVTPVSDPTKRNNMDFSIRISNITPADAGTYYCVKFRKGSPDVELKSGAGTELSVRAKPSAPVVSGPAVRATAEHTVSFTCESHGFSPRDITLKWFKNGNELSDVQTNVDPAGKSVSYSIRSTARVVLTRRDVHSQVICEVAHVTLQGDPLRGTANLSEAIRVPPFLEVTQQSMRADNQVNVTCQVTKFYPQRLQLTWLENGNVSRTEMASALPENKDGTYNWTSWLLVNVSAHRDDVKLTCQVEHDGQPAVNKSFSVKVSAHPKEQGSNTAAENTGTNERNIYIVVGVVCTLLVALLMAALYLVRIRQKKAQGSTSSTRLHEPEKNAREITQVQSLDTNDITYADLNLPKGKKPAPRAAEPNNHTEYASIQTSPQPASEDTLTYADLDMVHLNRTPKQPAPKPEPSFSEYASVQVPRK
The experiment is described as follows: FACS on CHOK1 cells. The method, then:
(§1) Species cross reactivity of the purified hybridoma antibodies against human, cyno and mouse SIRPα was determined by FACS assay using CHOK1-human SIRPα v1-1B4 cells, CHOK1-cyno SIRPα-2A2 cells, and CHOK1-C57BL/6 mouse SIRPα-2.22 cells, which stably expressing SIRPα protein. Briefly the antibodies were incubated with 2×10⁵ target cells at 4° C. for 1 hour. After washing, fluorescence labeled anti-mouse or anti-human IgG 2nd antibody (Life Technologies) was added and incubated at 4° C. for 1 hour. Geometric median fluorescence intensity was detected and EC₅₀ was calculated. In particular, it is noted, in contrast to the other antibodies tested in the same experiment, 060 cannot bind with cyno SIRPα and 035 has cross reactivity against C57BL/6 mouse SIRPα.

For experiment [10], the target named is T9, full length human SIRPα v1 stably expressed on CHOK1 cells (human, UniProt P78324 31-504).
T9 construct: whole, on cells; also called CHOK1-human SIRPα v1-1B4 cells; CHOK1-human SIRPα v1
The experiment is described as follows: FACS on CHOK1 cells. The method, then: as §1

Experiment [11] addresses T10, full length C57BL/6 mouse SIRPα stably expressed on CHOK1 cells (mouse (C57BL/6), UniProt P97797 32-513).
T10 construct: whole, on cells; also called CHOK1-C57BL/6 mouse SIRPα-2.22 cells
T10 sequence (looked up): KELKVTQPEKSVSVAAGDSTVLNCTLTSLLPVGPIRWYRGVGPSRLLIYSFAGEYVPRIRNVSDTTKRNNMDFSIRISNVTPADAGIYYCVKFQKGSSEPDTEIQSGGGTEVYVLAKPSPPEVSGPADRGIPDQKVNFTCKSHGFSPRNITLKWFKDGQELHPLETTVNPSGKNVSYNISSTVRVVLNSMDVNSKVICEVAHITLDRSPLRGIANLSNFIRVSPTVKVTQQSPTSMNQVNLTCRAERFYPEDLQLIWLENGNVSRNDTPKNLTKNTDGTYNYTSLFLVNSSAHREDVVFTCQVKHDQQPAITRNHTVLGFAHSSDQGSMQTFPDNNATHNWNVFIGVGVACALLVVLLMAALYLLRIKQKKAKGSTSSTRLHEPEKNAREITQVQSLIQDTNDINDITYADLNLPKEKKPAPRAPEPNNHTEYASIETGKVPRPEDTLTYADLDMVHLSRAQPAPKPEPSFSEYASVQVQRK
Put plainly: FACS on CHOK1 cells. The method, then:
as §1

Experiment [12] addresses T6, biotin labeled soluble human SIRPα v1 …. Put plainly: competitive ELISA; competitor 035. The method, then: (§2) Competitive ELISA assay was used for epitope binning of 9 functional antibodies. Briefly excessive competitor antibody and biotin labeled soluble human SIRPα v1 ECD recombinant protein were co-incubated with ELISA microplate coated antibody. After washing, HRP-SA was added and incubated at 37° C. for 1 hour. Then, […] of TMB solution (Biotechnology) was added. After incubation for 15 minutes at room temperature, the reaction was stopped by the addition of […] of 1N HCl. OD 450 nm was read. Competition ratio was calculated. The antibodies that can compete each other for binding to SIRPα have the similar binding epitope.

The target is the same in experiment [13]. The experiment is described as follows: competitive ELISA; competitor 060. The method, then: as §2
The target is the same in experiment [14]. Put plainly: competitive ELISA; competitor 032. The method, then:
as §2

For experiment [15] the target is unchanged. The experiment is described as follows: competitive ELISA; competitor HEFLB. The method, then: as §2
The target of experiment [16] is T1, Fc tagged human SIRPα v2 ECD …. The experiment is described as follows: ELISA. The method, then: (§3) Binding specificity of the purified hybridoma antibodies against SIRP family members was detected by ELISA assay using recombinant proteins of Fc tagged human SIRPα v1 ECD, human SIRPα v2 ECD, human SIRPβ ECD and human SIRPγ ECD. Briefly the antibodies were incubated with ELISA microplate coated antigens at 37° C. for 1 hour. After washing, horseradish peroxidase (HRP) labeled anti-mouse or anti-human IgG 2nd Ab (Sigma) was added and incubated at 37° C. for 1 hour. Then, 100 μl/well of TMB solution (Biotechnology) was added. After incubation for 15 minutes at room temperature, the reaction was stopped by the addition of 50 μl of 1N HCl. OD 450 nm was read and EC₅₀ was calculated. Other than 060 and HEFLB, all of the antibodies as tested can bind with both human SIRPα v1 and SIRPα v2. 060 and HEFLB can bind with human SIRPα v1 but not v2. Other than 055, all of the antibodies as tested can bind with human SIRPβ. In comparison with other known anti-SIRPα antibodies, only 022, 035 and 050 can bind with human SIRPγ weakly.
The source holds these as a separate data set.

Experiment [17] deals with T5, Fc tagged human SIRPα v1 ECD …. The experiment is described as follows: ELISA. The method, then:
as §3
This is another data set of the same source.

The target in experiment [18] is T6, biotin labeled soluble human SIRPα v1 …. The experiment is described as follows: competitive ELISA; competitor 002. The method, then:
as §2

For experiment [19] the target is unchanged. The experiment is described as follows: competitive ELISA; competitor KWAR23. The method, then: as §2
The target is the same in experiment [20]. The experiment is described as follows: competitive ELISA; competitor 29-AM4-5. The method, then: as §2
For experiment [21] the target is unchanged. Put plainly: competitive ELISA; competitor 055. The method, then:
as §2

For experiment [22] the target is unchanged. The experiment is described as follows: competitive ELISA; competitor 022. The method, then: as §2
The target is the same in experiment [23]. Put plainly: competitive ELISA; competitor 001. The method, then:
as §2

The target is the same in experiment [24]. The experiment is described as follows: competitive ELISA; competitor 074. The method, then:
as §2

The target is the same in experiment [25]. The experiment is described as follows: competitive ELISA; competitor 050. The method, then:
as §2

Read-outs that look alike come from different tables or passages of the source.

T7 sequence (P78324 other isoform, or with tags, fused parts or gaps): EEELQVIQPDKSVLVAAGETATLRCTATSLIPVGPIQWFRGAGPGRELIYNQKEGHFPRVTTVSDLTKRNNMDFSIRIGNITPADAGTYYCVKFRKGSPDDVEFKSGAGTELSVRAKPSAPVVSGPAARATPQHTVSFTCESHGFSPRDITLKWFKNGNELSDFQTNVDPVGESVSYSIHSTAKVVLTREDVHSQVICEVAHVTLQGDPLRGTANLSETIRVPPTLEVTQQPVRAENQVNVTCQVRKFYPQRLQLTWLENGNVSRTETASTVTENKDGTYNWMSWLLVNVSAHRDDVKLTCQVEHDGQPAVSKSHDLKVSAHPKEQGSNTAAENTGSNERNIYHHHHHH
T6 sequence (P78324 31-373): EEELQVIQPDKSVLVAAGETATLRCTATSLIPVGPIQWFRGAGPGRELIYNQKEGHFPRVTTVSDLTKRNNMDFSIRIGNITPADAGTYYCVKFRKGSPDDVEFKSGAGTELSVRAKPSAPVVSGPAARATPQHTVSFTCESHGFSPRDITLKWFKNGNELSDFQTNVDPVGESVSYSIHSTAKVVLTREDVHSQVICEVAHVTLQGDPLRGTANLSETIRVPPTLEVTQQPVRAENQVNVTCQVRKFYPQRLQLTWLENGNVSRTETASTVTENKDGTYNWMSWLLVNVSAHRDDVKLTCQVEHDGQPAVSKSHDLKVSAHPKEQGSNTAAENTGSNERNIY
T5 sequence (P78324 31-370 limits assumed): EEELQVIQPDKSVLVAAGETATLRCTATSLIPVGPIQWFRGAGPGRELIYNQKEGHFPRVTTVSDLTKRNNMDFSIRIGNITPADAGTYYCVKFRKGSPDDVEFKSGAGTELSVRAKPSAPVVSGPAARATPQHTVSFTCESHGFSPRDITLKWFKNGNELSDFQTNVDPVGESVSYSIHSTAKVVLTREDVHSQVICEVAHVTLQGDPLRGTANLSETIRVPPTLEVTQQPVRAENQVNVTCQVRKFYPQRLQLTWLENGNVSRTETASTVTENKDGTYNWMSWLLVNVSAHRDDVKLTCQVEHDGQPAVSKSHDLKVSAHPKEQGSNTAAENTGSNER
T4 sequence (Q9P1W8 29-360 limits assumed, form in doubt): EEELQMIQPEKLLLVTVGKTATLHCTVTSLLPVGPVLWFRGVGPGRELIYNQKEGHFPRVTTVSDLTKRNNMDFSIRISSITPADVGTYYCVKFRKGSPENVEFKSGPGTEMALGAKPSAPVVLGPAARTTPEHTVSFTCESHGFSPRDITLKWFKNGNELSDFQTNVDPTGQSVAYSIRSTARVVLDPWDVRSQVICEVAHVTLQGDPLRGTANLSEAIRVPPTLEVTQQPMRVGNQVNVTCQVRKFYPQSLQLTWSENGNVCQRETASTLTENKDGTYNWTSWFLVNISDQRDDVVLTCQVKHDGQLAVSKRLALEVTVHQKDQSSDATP
T3 sequence (O00241 30-371 limits assumed, form in doubt): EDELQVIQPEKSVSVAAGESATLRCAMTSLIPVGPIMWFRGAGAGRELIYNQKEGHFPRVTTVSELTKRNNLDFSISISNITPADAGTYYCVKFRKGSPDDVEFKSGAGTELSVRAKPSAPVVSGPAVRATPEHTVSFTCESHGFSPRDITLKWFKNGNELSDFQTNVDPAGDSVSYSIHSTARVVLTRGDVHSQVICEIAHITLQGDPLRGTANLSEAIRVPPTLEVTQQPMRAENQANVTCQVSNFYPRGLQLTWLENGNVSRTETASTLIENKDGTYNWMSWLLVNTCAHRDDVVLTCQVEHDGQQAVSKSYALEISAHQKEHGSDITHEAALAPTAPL

B1: humanized antibody hu035.02 (antibody, V domains shown)
VH: QIQLVQSGSELKKPGASVKVSCRARGYTLTDYAMNWVRQAPGQGLEWMGFINTYTGEPTYAQGFKGRFVFSLDTSVSTAYLQIGSLKAEDTAVYYCARTRGYYDFDGGAFDYWGQGTLVTVSS
VL: DIQMTQSPSSLSASVGDRVTITCRASQNVGTHLAWYQQKPGKAPKSLIYSASYRYIGVPSRFSGSGSGTDFTLTISSLQPEDFATYYCQQYNTYPLTFGQGTKLEIK
The EC50 is the concentration at which the effect is half-maximal. As usually defined, the IC50 is the concentration that inhibits the measured activity by half. For orientation: Kd means the equilibrium constant for the complex coming apart. The term koff denotes the rate constant with which the complex falls apart. The kon is the second-order rate constant of association. Regarding B1, the EC50 in experiment [1] worked out at 160 pM; in experiment [2], 230 pM; in experiment [3] it was 200 pM; in [4], 6240 pM; in experiment [5], 160 pM; in experiment [9], 290 pM. This molecule also had an EC50 in [10] of 970 pM. Moreover, the IC50 in experiment [6] stood at 1740 pM. The Kd in experiment [7] and in [8] was 1640 pM each time. In addition, the koff in experiment [8] is 0.00017 s⁻¹. For the same molecule, in experiment [8], the kon was determined as 104000 M⁻¹ s⁻¹. In addition, the “MFI at 2 ug/ml” value in [11] was determined as 549 MFI.

B2: Antibody 055 (hybridoma antibody) (antibody, V domains shown)
VH: EVKLVESEGGLVQPGDSMKLSCTASGFTFSDYFMTWIRQVPEKGLEWIANVNYDGRSTYYLDSLKSRFIISRDNANNILYLQMSSLKSEDTATYYCAREGSQTPLYAVDYWGQGTSVTVSS
VL: DIVMTQSQKFMSTTVGDRVNITCKASQNVGTAVAWYQQKPGQSPKLLIYLASNRYTGVPDRFTGSGSGTDFTLTVSDMRSEDLADYFCQQYSIYPFTFGSGTKLEIK
notes: mouse hybridoma antibody
As to B2, the “% Competition” value in experiment [12] is 8%; in [13], 8%; in experiment [14], -1%; in experiment [15] it was -10%; in experiment [18], -8%; in experiment [19], 45%. In addition, the “% Competition” value is 14% in experiment [20]; 91% in experiment [21]; 2% in experiment [22]; -3% in experiment [23]; 3% in experiment [24]; 7% in [25]. The EC50 came to 40 pM in [16], 40 pM in experiment [17] and 1200 pM in experiment [10]. In [9], the “MFI at 10 nM” value was 4670 MFI. For the same molecule, the binding result in experiment [11] is recorded as “no binding (tested: 100 nM)”.
